B1: 2D3-9GS-56E4-MycHis (other)
chain: EVQLVESGGSLVQPGGSLRLSCAASGFTFDDYAMSWVRQVPGKGLEWVSSINWSGTHTDYADSVKGRFTISRNNANNTLYLQMNSLKSEDTAVYYCAKNWRDAGTTWFEKSGSAGQGTQVTVSSGGGGSGGGSAAARYWDYDVFGGGTPVGGAAAEQKLISEEDLNGAAHHHHHH
B2: 2D3-9GS-59F2-MycHis (other)
chain: EVQLVESGGSLVQPGGSLRLSCAASGFTFDDYAMSWVRQVPGKGLEWVSSINWSGTHTDYADSVKGRFTISRNNANNTLYLQMNSLKSEDTAVYYCAKNWRDAGTTWFEKSGSAGQGTQVTVSSGGGGSGGGSAAARYWDFDVFGGGTPVGGAAAEQKLISEEDLNGAAHHHHHH
B3: 2D3-9GS-59H12-MycHis (other)
chain: EVQLVESGGSLVQPGGSLRLSCAASGFTFDDYAMSWVRQVPGKGLEWVSSINWSGTHTDYADSVKGRFTISRNNANNTLYLQMNSLKSEDTAVYYCAKNWRDAGTTWFEKSGSAGQGTQVTVSSGGGGSGGGSAAARSWDFDVFGGGTPVGGAAAEQKLISEEDLNGAAHHHHHH
B4: 2D3-9GS-59C2-MycHis (other)
chain: EVQLVESGGSLVQPGGSLRLSCAASGFTFDDYAMSWVRQVPGKGLEWVSSINWSGTHTDYADSVKGRFTISRNNANNTLYLQMNSLKSEDTAVYYCAKNWRDAGTTWFEKSGSAGQGTQVTVSSGGGGSGGGSAAARDWDFDVFGGGTPVGGAAAEQKLISEEDLNGAAHHHHHH
B5: 2D3-9GS-56E4 (other)
chain: EVQLVESGGSLVQPGGSLRLSCAASGFTFDDYAMSWVRQVPGKGLEWVSSINWSGTHTDYADSVKGRFTISRNNANNTLYLQMNSLKSEDTAVYYCAKNWRDAGTTWFEKSGSAGQGTQVTVSSGGGGSGGGSRYWDYDVFGGGTPVGG
notes: untagged; Nanobody 2D3, 9GS linker, 56E4 without the two N-terminal alanines; also called 2D3-9GS-EXP56E4
B6: 2D3-9GS-59C2 (other)
chain: EVQLVESGGSLVQPGGSLRLSCAASGFTFDDYAMSWVRQVPGKGLEWVSSINWSGTHTDYADSVKGRFTISRNNANNTLYLQMNSLKSEDTAVYYCAKNWRDAGTTWFEKSGSAGQGTQVTVSSGGGGSGGGSRDWDFDVFGGGTPVGG
notes: untagged; also called 2D3-9GS-EXP59C2; 2D3-EXP59C2
B7: 12A2_sv1-AAA-12A2_sv1 (VHH)
chain: DVQLVESGGGLVQPGGSLRLSCAASGRTFSYNPMGWFRQAPGKGRELVAAISRTGGSTYYPESVEGRFTISRDNAKRTVYLQMNSLRAEDTAVYYCAAAGVRAEQGRVRTLPSEYTFWGQGTQVTVSSAAAEVQLVESGGGLVQPGGSLRLSCAASGRTFSYNPMGWFRQAPGKGRELVAAISRTGGSTYYPESVEGRFTISRDNAKRTVYLQMNSLRAEDTAVYYCAAAGVRAEQGRVRTLPSEYTFWGQGTQVTVSS
notes: also called vWF-001; vWF-0001
B8: 12A2 sv1-AAA-12A2 sv1-9GS-59C2-9GS-59C2 (VHH)
chain: DVQLVESGGGLVQPGGSLRLSCAASGRTFSYNPMGWFRQAPGKGRELVAAISRTGGSTYYPESVEGRFTISRDNAKRTVYLQMNSLRAEDTAVYYCAAAGVRAEQGRVRTLPSEYTFWGQGTQVTVSSAAAEVQLVESGGGLVQPGGSLRLSCAASGRTFSYNPMGWFRQAPGKGRELVAAISRTGGSTYYPESVEGRFTISRDNAKRTVYLQMNSLRAEDTAVYYCAAAGVRAEQGRVRTLPSEYTFWGQGTQVTVSSGGGGSGGGSRDWDFDVFGGGTPVGGGGGGSGGGSRDWDFDVFGGGTPVGG
notes: also called vWF-0056; VWF0056
B9: 12A2 sv1-9GS-59C2-9GS-12A2 sv1 (VHH)
chain: DVQLVESGGGLVQPGGSLRLSCAASGRTFSYNPMGWFRQAPGKGRELVAAISRTGGSTYYPESVEGRFTISRDNAKRTVYLQMNSLRAEDTAVYYCAAAGVRAEQGRVRTLPSEYTFWGQGTQVTVSSGGGGSGGGSRDWDFDVFGGGTPVGGGGGGSGGGSEVQLVESGGGLVQPGGSLRLSCAASGRTFSYNPMGWFRQAPGKGRELVAAISRTGGSTYYPESVEGRFTISRDNAKRTVYLQMNSLRAEDTAVYYCAAAGVRAEQGRVRTLPSEYTFWGQGTQVTVSS
notes: also called vWF-0053; vWF 0053
B10: vWF0054 (VHH)
single chain fusion protein: DVQLVESGGGLVQPGGSLRLSCAASGRTFSYNPMGWFRQAPGKGRELVAAISRTGGSTYYPESVEGRFTISRDNAKRTVYLQMNSLRAEDTAVYYCAAAGVRAEQGRVRTLPSEYTFWGQGTQVTVSSGGGGSGGGSRDWDFDVFGGGTPVGGGGGGSGGGSRDWDFDVFGGGTPVGGGGGGSGGGSEVQLVESGGGLVQPGGSLRLSCAASGRTFSYNPMGWFRQAPGKGRELVAAISRTGGSTYYPESVEGRFTISRDNAKRTVYLQMNSLRAEDTAVYYCAAAGVRAEQGRVRTLPSEYTFWGQGTQVTVSS
notes: also called 12A2 sv1-9GS-59C2-9GS-59C2-9GS-12A2 sv1

What follows are binders tested against T1, cynomolgus monkey serum albumin (cynomolgus monkey, UniProt A2V9Z4 25-608) (assay: SPR, BIAcore 3000, CSA on CM5 chip).
T1 construct: amine-coupled to a CM5 chip; also called CSA; cynoSA
Experimental: (§1) For this purpose, binding to HSA and CSA was assessed in BIAcore™ 3000, by injecting concentration series of the fusion proteins ranging from 2 μM to 200 nM on a CM5 chip coated with ˜3000 RU HSA or CSA. Coating of the chip (CM5) was performed by amine coupling using NHS/EDC for activation and ethanolamine for deactivation (Biacore amine coupling kit). HBS-EP was used as flow buffer at a rate of […]. 90 μl of sample was injected for 120 s.

T1 sequence (A2V9Z4 25-608 limits assumed): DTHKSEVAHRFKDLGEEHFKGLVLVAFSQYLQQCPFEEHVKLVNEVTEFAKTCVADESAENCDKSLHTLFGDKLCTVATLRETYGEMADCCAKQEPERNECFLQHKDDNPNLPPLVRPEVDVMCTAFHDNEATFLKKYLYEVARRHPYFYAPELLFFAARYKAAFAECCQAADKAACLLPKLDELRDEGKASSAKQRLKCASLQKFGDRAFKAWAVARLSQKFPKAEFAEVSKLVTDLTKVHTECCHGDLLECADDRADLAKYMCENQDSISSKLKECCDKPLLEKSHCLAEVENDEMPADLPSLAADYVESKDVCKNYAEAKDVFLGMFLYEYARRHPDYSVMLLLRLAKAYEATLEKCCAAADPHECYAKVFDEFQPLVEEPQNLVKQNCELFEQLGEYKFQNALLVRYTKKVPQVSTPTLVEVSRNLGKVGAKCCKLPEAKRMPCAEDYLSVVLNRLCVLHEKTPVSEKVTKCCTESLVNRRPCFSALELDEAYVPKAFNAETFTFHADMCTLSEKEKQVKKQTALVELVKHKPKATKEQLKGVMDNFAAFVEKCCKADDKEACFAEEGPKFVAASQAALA

**Q.** What does the source list for B1?
**A.** Kd: 2110 nM; kon: 4010 M⁻¹ s⁻¹

**Q.** B2 was tested. Which Kd did it give?
**A.** The Kd was 1040 nM.

**Q.** And the kon?
**A.** Its kon is 4850 M⁻¹ s⁻¹.

**Q.** What does the source list for B3?
**A.** Kd: 1280 nM; kon: 3450 M⁻¹ s⁻¹

**Q.** B4 was tested. Which Kd did it give?
**A.** The Kd was 775 nM.

**Q.** What about the kon of the same binder?
**A.** The kon was 2750 M⁻¹ s⁻¹.

These binders were tested against T2, human serum albumin (human, UniProt P02768 25-609) (assay: SPR, BIAcore 3000, HSA on CM5 chip).
T2 construct: also called HSA
Experimental: as §1

**Q.** What does the source list for B1?
**A.** Kd: 991 nM; koff: 0.00497 s⁻¹; kon: 5020 M⁻¹ s⁻¹

**Q.** Which results are given for B2?
**A.** Kd: 571 nM; koff: 0.00351 s⁻¹; kon: 6140 M⁻¹ s⁻¹

**Q.** How did the Kd turn out when B3 was run?
**A.** Its Kd is 663 nM.

**Q.** What about the koff of the same binder?
**A.** Its koff is 0.00304 s⁻¹.

**Q.** And the kon?
**A.** The kon was 4590 M⁻¹ s⁻¹.

**Q.** With B4 as the binder, how does the Kd read?
**A.** The Kd was 481 nM.

**Q.** And the koff?
**A.** Its koff is 0.00179 s⁻¹.

**Q.** What about the kon of the same binder?
**A.** The kon was 3730 M⁻¹ s⁻¹.

Molecular target: T1, cynomolgus monkey serum albumin
Test: SPR, BIAcore 3000, CSA on CM5 chip
Remark: another data set of the same source
Experimental: as §1, with “The” for “For this purpose,”, “binding” for “binding to HSA and CSA”, “determined” for “assessed”

**Q.** With B5 as the binder, how does the Kd read?
**A.** The Kd was 495 nM.

**Q.** And the kon?
**A.** Its kon is 17100 M⁻¹ s⁻¹.

**Q.** How did the Kd turn out when B6 was run?
**A.** Its Kd is 276 nM.

**Q.** What about the kon of the same binder?
**A.** Its kon is 8980 M⁻¹ s⁻¹.

The binders below were run against T2, human serum albumin (assay: phage ELISA and/or solution binding competition ELISA on HSA).

**Q.** Does AATYLDYDVFGGGTPDGR [PMP54E3] bind?
**A.** Result: binds

**Q.** Does AARYYDYDVFGGGTVVGE [PMP54B2] bind?
**A.** Result: binds

**Q.** Does AAFYMDYDVFGGGTPRGQ [PMP56A4] bind?
**A.** Result: binds

Each binder was assayed against T2, human serum albumin (assay: phage ELISA, phage titration on coated HSA, near-infrared fluorescence).
Experimental: (§2) 5-fold serial dilutions of phage clones (starting from ˜5×10¹¹ phage) were added to 96-well Nunc Maxisorp plates coated with human serum albumin (2 μg/ml in PBS, overnight at 4° C.; plates were blocked with Superblock T20 (Pierce) for 1 h at room temperature). […] The amount of IRDye bound was measured on Odyssey (LI-COR Biosciences). The dilution of phage was plotted against measured near-infrared fluorescence intensity (FIG. 2).
(§3) After respectively three and four selection rounds, monoclonal phage were screened for binding on HSA, in the manner described in Example 2. Clones that bind to HSA (FIGS. 7A to 7C and Table V) were screened in phage competition ELISA, in the manner described in Example 5. The ratio of phage binding was calculated by the following equation: fluorescence signal of well with 2 μM competitor/fluorescence signal of well with no competitor (Table VI).

**Q.** Does AARWWDYDVFGGGTPVGG [59A5] bind?
**A.** Result: binds

**Q.** Does AARFWDYDVFGGGTPVGG [59B2] bind?
**A.** Result: binds

**Q.** Does AARYWDYDVFGGGTPVDG [60E6] bind?
**A.** Result: binds

**Q.** Does AARYWDFDAFGGGTPVGG [59B3] bind?
**A.** Result: binds

**Q.** Does AARYWDYDVFGGGSQVGG [60F1] bind?
**A.** Result: binds

**Q.** Does AARYWDYDVFGGGSPVGG [60G5] bind?
**A.** Result: binds

**Q.** Does AARYWDWDVFGGGTPVGG [59C8] bind?
**A.** Result: binds

**Q.** Does AARYWDFDVFGGGSPVGG [59H10] bind?
**A.** Result: binds

These binders were tested against T2, human serum albumin (assay: phage competition ELISA: phage pre-incubated with 2 µM HSA, captured on coated HSA).
Experimental: Unbound phage was captured by transferring 100 μl of the well mixture to the HSA coated Maxisorp plate and incubating at room temperature for 30 minutes. The plate with captured phage was washed with PBS-0.05% Tween 20 five times. Bound phages were detected with anti-M13 and goat-anti mouse IRDye conjugate. The amount of IRDye bound was measured on Odyssey (LI-COR Biosciences). The ratio of phage binding was calculated by the following equation: fluorescence signal of well with competitor/fluorescence signal of well with no competitor (Table III).
as §3

**Q.** Which “Ratio 2 µM/0 µM HSA” value does the source give for AARYWDYDVFGGGTPVGG (also called EXP56E4) [PMP56E4] here?
**A.** The value was 0.82.

**Q.** With AARSWDFDVFGGGTPVGG [59H12] as the binder, how does the “Ratio 2 µM/0 µM HSA” value read?
**A.** The value was 0.87.

**Q.** How did the “Ratio 2 µM/0 µM HSA” value turn out when AARYWDFDVFGGGTPVGG [59F2] was run?
**A.** Its value is 0.69.

**Q.** For AARDWDFDVFGGGTPVGG [59C2], which “Ratio 2 µM/0 µM HSA” value is on record?
**A.** Its value is 0.91.

These binders were tested against T2, human serum albumin (assay: phage ELISA, 5-fold phage dilutions on coated HSA, anti-M13 detection, near-infrared fluorescence).
Experimental: as §2

**Q.** Does AAPYRDYDVFGGGTPRGE [PMP56F2] bind?
**A.** Result: binds

**Q.** Does AASYSDYDVFGGGTDFGP [17D12] bind?
**A.** Result: binds

**Q.** Does AAYYYDYDVFGGGTPGGE [PMP56E2] bind?
**A.** Result: binds

What follows are binders tested against T3, von Willebrand factor (human, UniProt P04275 764-2813) (assay: inhibition ELISA: ristocetin-induced binding of plasma vWF to fixed human platelets (glycoprotein Ib), bound vWF detected with anti-VWF-HRP).
T3 construct: vWF of the human plasma in which the compounds were diluted; multimeric; also called vWF; VWF

**Q.** With B7 as the binder, how does the “IC50 (read off the curve)” value read?
**A.** Its value is about 10 nM.

**Q.** With B8 as the binder, how does the “IC50 (read off the curve)” value read?
**A.** The value was about 20 nM.

**Q.** Does B9 bind?
**A.** Result: binds

**Q.** Does B10 bind?
**A.** Result: binds

Reference: patent publication US20120253008A1 (Ablynx, published 2012)
